Experiment [1] has as its target Human IL-17RA full-length expressed on the surface of cells (human) (UniProt Q96F46). Nature of the experiment: cell-based or functional assay.
Another experiment has as its target chimera L. The experiment can be described thus: Bio-Plex titration on His-captured chimera; bold cell = binding criterion not met.

B1: AMH23/AML23 (antibody, part only; not given: light variable domain, version unclear, V domains shown, part only)
VH: QVQLQESGPGLVKPSETLSLTCTVSGGSISSYYWSWIRQPAGKRLEWIGRIYPSGRTNYNPSLKSRVTMSVDTSKNQFSLKLSSVTAADTAVYYCAREAYELQLGLYYYYGMDVWGQGTPVTVSS
B1: in experiment [1], the % inhibition of IL-6 production, IL-17A/HFF bioassay, supernatant 19 (incl. AMH23), 1:4 dilution was determined as 79%; the % inhibition of IL-6 production, IL-17A/HFF bioassay, supernatant 19 (incl. AMH23), 1:32 was determined as 72%; the % inhibition of IL-6 production, repeat IL-17A/HFF bioassay, supernatant 19 (incl. AMH23), 1:4 came out at 86%; the % inhibition of IL-6 production, repeat IL-17A/HFF bioassay, supernatant 19 (incl. AMH23), 1:32 turned out to be 76%. In addition, in experiment [1], the % inhibition of IL-6 production, repeat IL-17A/HFF bioassay, supernatant 19 (incl. AMH23), 1:128 turned out to be 67% and the % inhibition of IL-6 production, repeat IL-17A/HFF bioassay, supernatant 19 (incl. AMH23), 1:512 was 50%.

B2: AMH26/AML26 (antibody, IgG2, V domains shown)
VH: QVQLVESGGGLVKPGGSLRLSCAASGFTFSDYYMSWIRQAPGKGLEWVSYISSSGSTIYYADSVKGRFTISRDNAKNSLYLQMNSLRAEDTAVYYCARDRTYYFGSGSYEGMDVWGQGTTVTVSS
VL: EILMTQSPATLSVSPGERATLSCRASQSVYSNLAWYQQKPGQAPRLLISGASTRATGIPARFSGSGSGTEFTLTISSLQSEDFAVYYCQQYYNWPWTFGQGTKVEIK
For B2, in the experiment with chimera L, the EC50 as fitted, in a bold cell (binding criterion not met) was 6 pM.

Source of the values: patent US20120308566A1.
